Test results as given in the supplement of paper PMC10126150.
± gives the standard deviation of the averaged measurements.

system: ATP; test: switch fluorescence ratio, 500 uM ATP over buffer (Cy3 cluster intensity, sum of 5 cycles each) (fold (ratio)); higher = stronger signal-on switching upon ATP binding; sequences stand for … in TCGTCGGCAGCGTCAGATGTGTATAAGAGACAGTTTTTTTTTTTTTTTTTTTTTTTTT…TC; settings: aptamer strand: ATP DNA aptamer (quencher-CACCTGGGGGAGTATTGCGGAGGAAGG + anchor), 100 nM annealed; ATP concentration: 500 uM
Outline: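 Clusters with intensities outside 100-1000 RFU were excluded. The remaining Cy3-labelled switching-strand clusters on a modified Illumina MiSeq flow-cell had been annealed to 100 nM quencher-labelled ATP aptamer and imaged in selection buffer, then after 15 min with 500 uM ATP at 22 °C, for five cycles separated by NaOH stripping and re-annealing. The fluorescence ratio, averaged per switch-domain sequence, is each cluster's summed target-cycle Cy3 intensity over its summed buffer-cycle Cy3 intensity.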
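Note: ATP exposure 15 min at 22 °C before imaging.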

Sequence	switch fluorescence ratio
ACGTATAGAA	1.159 ± 0.0097
CAGTTTACGT	0.983 ± 0.023
CTTGAAAAGG	0.9995 ± 0.0038
TTTTGCTTGA	1.07 ± 0.052
ATTTGTTGCT	0.981 ± 0.025
CCGCATTTGT	2.68 ± 2.4
CAAATCTTGT	1.03 ± 0.027
ACCACGGTTG	1.07 ± 0.023
GGGTTGTAAG	0.986 ± 0.013
TTATTGGGCC	1.01 ± 0.026
TCAAAACGGC	1.07 ± 0.15
AAGTCTTGTT	0.97636 ± 0.00051
GGATGGACTG	0.937 ± 0.035
ATTTCGTGCG	1.01 ± 0.061
GGGGGGATTA	0.992 ± 0.035
AAATAGGGTG	1.13 ± 0.18
TTTGGATTGT	1.006 ± 0.0074
TGTTGAATGT	1.02 ± 0.03
AAATTGCTAG	0.997 ± 0.032
TATTTGGGGG	1.01 ± 0.029
GGTAGATTCG	0.994 ± 0.027
AATAATGGAA	0.987 ± 0.015
AATTTGTATG	0.991 ± 0.028

Sequence	switch fluorescence ratio
AATCGTTGGG	0.955 ± 0.038
ATGGTGTTAT	0.989 ± 0.014
AAAAGGAGAC	1.01 ± 0.028
CGGGCCCGTA	0.961 ± 0.094
TATACAGCGA	1.0822 ± 0.00025
ATATGTGGGG	1.01 ± 0.011
CAAGAGGGGC	1 ± 0.026
CAAGGTACGA	1.02 ± 0.043
ATATGGTGGT	1.03 ± 0.023
CCGTTTATAT	1.4 ± 0.13
ACGGGGGAGC	1.03 ± 0.043
GGGGTTTAGT	1.01 ± 0.022
GGTTCGAAGT	1.01 ± 0.048
ACGGTTGAG	0.96 ± 0.036
CCTGAGAACA	1.02 ± 0.031
TGTGACAATA	1.04 ± 0.01
CACTAACCCT	1.148 ± 0.0044
AAAAAATCGC	1.09 ± 0.16
CTGTTCTAGT	0.963 ± 0.045
AGAATTCTAG	1.01 ± 0.022
TGGTGGGGGT	0.999 ± 0.028
TAGGTACCAG	0.984 ± 0.025
CGAGTTTGGG	1.001 ± 0.0031

Sequence	switch fluorescence ratio
TGTTAGTGTT	1.03 ± 0.029
TAGGGGTGGG	1.0453 ± 0.00085
TTTCGTGCCT	1.065 ± 0.0026
TAGGATGGTT	0.984 ± 0.013
AGGTGCATAA	1.05 ± 0.017
AGGCACCAAC	1.16 ± 0.044
TAGGGGATAG	1.02 ± 0.032
TACTGAATTA	1.03 ± 0.03
CAGGGTTAAT	1.012 ± 0.0094
CATCGCATTT	2.32 ± 0.91
ATAAGGCGGG	0.971 ± 0.031
CGATTGTATG	0.992 ± 0.054
GGGGGCCTGG	0.979 ± 0.019
TTGCTTAAAC	1.02 ± 0.025
TTATAAGGTT	1.02 ± 0.023
AATAATCTTT	1.02 ± 0.013
AGTTGAGTTT	0.992 ± 0.026
ATGACACGGA	1.04 ± 0.01
GTTCAGAGGG	1.05 ± 0.1
TGATGGACGG	1 ± 0.022
ACCCCGGTCT	1.04 ± 0.011
AGGGATGCGG	0.99607 ± 0.00094
CCTGGAGGGG	1.07 ± 0.066

Sequence	switch fluorescence ratio
TTTCGACGTC	0.997 ± 0.12
GATGGAGGAT	1.01 ± 0.021
GGATGTCCAG	0.947 ± 0.028
CTCGGGCATT	1.23 ± 0.052
TTTCGGTGTG	0.977 ± 0.0098
TTATAGTTAT	1.001 ± 0.0029
GTTAAATCTT	1 ± 0.042
GTGAGAGCAT	1.05 ± 0.028
TTTGGGCTCC	0.98 ± 0.018
ACACTTTCG	1.018 ± 0.0011
TAATCAACGA	1 ± 0.019
TAAAAACGGG	1.05 ± 0.11
CGGGCTGTTT	0.977 ± 0.013
GATTTCGGCG	0.97 ± 0.03
CGTGATCAGA	0.996 ± 0.039
GGAAACAGGG	0.964 ± 0.02
CAGGGTTGGG	1 ± 0.019
GATATTGTTA	1 ± 0.029
GGAATTATTG	1.08 ± 0.15
TTTCTGTATC	1.04 ± 0.044
CAGGGATTTT	0.98 ± 0.022
CGTCGTACGC	0.981 ± 0.13
ACATACGGGG	1.3 ± 0.1

Sequence	switch fluorescence ratio
CCAGTAAAAT	1.01 ± 0.019
CGCGCATGGT	1.14 ± 0.033
TGTTTTAGTT	1.01 ± 0.045
CATGGGCCGT	1.02 ± 0.035
ATGAAAGTAG	1.005 ± 0.0012
TTGGGCCTGA	1.002 ± 0.0032
TGTAAGGATT	1.009 ± 0.0083
GCTGTAGGCC	1.02 ± 0.014
TTTAAATCCT	1.09 ± 0.013
ATAAGGGCTA	0.99 ± 0.031
AGGGGGAAAA	1.47 ± 0.69
TTTCTGGCGA	1.054 ± 0.01
CTGGACATGT	0.97556 ± 7.2e-05
GAGTATTTAA	0.964 ± 0.058
TAAAGGTTGT	0.994 ± 0.055
TATTAATTGG	0.9932 ± 0.0037
CGGTTGGGCC	0.993 ± 0.014
TGGCCGACTT	1.02 ± 0.02
TGTGCGTCGA	1.001 ± 0.00055
TCAAGGAGGT	1.01 ± 0.13
CAGCAGGGAG	1.1 ± 0.096
TCATGAAAAG	0.997 ± 0.013
TACAAGTTTT	0.986 ± 0.0093

Sequence	switch fluorescence ratio
TTGGAGTACT	1.09 ± 0.24
TGGGGTATGG	0.978 ± 0.033
TGGCTGAGAA	0.9723 ± 0.0028
TGGGTAATAT	1.032 ± 0.0077
AATTGGGGTT	1.012 ± 0.0052
TGGGTATTGT	1.02 ± 0.047
TTTCGTGGAG	0.996 ± 0.02
CATTAGCGCA	1.047 ± 0.0084
CGTGGCCTGG	0.994 ± 0.024
TAAACGGGGT	1.03 ± 0.032
CTGGCAGAAA	1.02 ± 0.043
CGTTATCGTC	0.99 ± 0.0099
AGTTCCAAAA	1.07 ± 0.1
GCTCAGTAGT	1.03 ± 0.027
CAGGATCATG	1.11 ± 0.15
TTTTAAAGGG	0.993 ± 0.045
TGTGGGGAGC	0.995 ± 0.043
TTAAAGGGGG	1.02 ± 0.086
TGGGGACCTT	1 ± 0.0032
GTCGGAGCGA	1.83 ± 0.57
AAAAGGATGG	0.979 ± 0.021
GGCGGATATA	0.9553 ± 0.0058
ACTCTTAGGG	1.03 ± 0.027

Sequence	switch fluorescence ratio
AGAGGGTGTG	0.992 ± 0.034
CGGGAACATT	1.01 ± 0.017
GCGAAATTAA	0.997 ± 0.018
ATGGTATTTG	0.998 ± 0.037
AAGGCTTCTT	1 ± 0.015
CCAGGGGGGG	1.24 ± 0.32
AGGTGGGCGG	0.969 ± 0.022
AGCTTGGGGG	0.995 ± 0.027
AACCTGTAGG	0.987 ± 0.021
CAGAGGGGCG	1.04 ± 0.043
AGTCAAATGG	0.996 ± 0.043
CTGAAAGGGT	1.01 ± 0.011
TTTAGGGGCC	0.987 ± 0.021
GGGGTGACGT	1.02 ± 0.031
TGGTAGAGTG	0.987 ± 0.0027
TTTTTGGCCA	1.01 ± 0.051
TTGATGGCGA	1.22 ± 0.3
TGCTGGATT	0.983 ± 0.025
GTTGAGCTGG	0.971 ± 0.019
